The target in this experiment is T1, PD-1蛋白 (PD-1抗原) (human, UniProt Q15116 25-167, limits assumed).
T1 construct: The construct is not described; also called A蛋白
In words: SPR, Bio-Rad ProteOn XPR36, antibody coupled to channel L6, PD-1 antigen as analyte. (In SPR one partner is held on a chip, and binding of the other changes the refractive index at the surface.)

T1 sequence (Q15116 25-167 limits assumed): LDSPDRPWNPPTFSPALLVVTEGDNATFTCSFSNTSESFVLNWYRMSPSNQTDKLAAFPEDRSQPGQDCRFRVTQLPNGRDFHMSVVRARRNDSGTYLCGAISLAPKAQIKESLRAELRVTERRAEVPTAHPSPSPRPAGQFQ

B1: 抗人PD-1的单克隆抗体2D1 (2D1株单克隆抗体) (antibody, V domains shown)
VH: QVQLQQSGDDLVKPGASVKLSCKASGYTFTSYWINWIKQRPGQGLEWIGRIAPGSGSTYYNEMFKGKATLTVDTSSSTAYIQLSSLSSEDSAVYFCARLGQYYAMDYWGQGTTLTVSS
VL: DIVMTQTPLSLPVSLGDQASISCRSSQSLVHSNGNTYLHWYLQKPGQSPKLLIYKVSNRFSGVPDRFSGSGSGTDFTLKISRVEAEDLGVYFCSQSTHVPYTFGGGTKLELKR
notes: Mouse monoclonal antibody from a Balb/c x SP2/0 hybridoma; It was purified from ascites, and hybridoma supernatant was used in flow cytometry; it was detected with anti-mouse IgG; also called 2D1-1
The Kd is the constant that tells how readily two partners part at equilibrium. Usually koff stands for a measure of how fast the partners let go of each other. By kon is commonly meant the second-order rate constant of association. In turn, B1 came in with a Kd of 0.134 nM, a koff of 2.94e-05 s⁻¹ and an on-rate (kon) of 220000 M⁻¹ s⁻¹.

The values are drawn from patent publication CN106831988A (SHENZHEN INST OF ADV TECH CAS, dated 2017).
